Test results published in patent US20040175786A1.

Molecular target: human CD3 (TCR/CD3 complex) on T-cells (human) (UniProt P07766)
Experiment: cell-based or functional assay

| Substance | IL-2 production [pg/mL] | INF-γ-production [pg/mL] | T-cell proliferation, immobilized Ak [cpm × 10^3] [cpm] | T-cell proliferation, soluble Ak [cpm × 10^3] [cpm] | TNF-α-production [pg/mL] |
| --- | --- | --- | --- | --- | --- |
| monoclonal OKT3 antibody | 467 | 1380 | 12500 | 9500 | 960 |
| scOKT3-γ?IgM, C575S (from UniProt P01871 218-435) (Fc fusion) | 65 | 202 | 3300 | 1900 | 149 |
| scOKT3-γ?IgM, C575S Monomers (from UniProt P01871 218-435) (Fc fusion) | 73 | 189 | 3700 | 2400 | 169 |
| scOKT3-γ?IgM, WT (from UniProt P01871 218-435) (Fc fusion) | 47 | 244 | 4600 | 2600 | 167 |
| scOKT3-γ?IgM, WT Monomers (from UniProt P01871 218-435) (Fc fusion) | 52 | 222 | 4000 | 1800 | 166 |
| scOKT3-γ?IgM, WT Pentamers/hexamers (from UniProt P01871 218-435) (Fc fusion) | 42 | 232 | 3500 | 2100 | 158 |

Molecular target: human CD3 (TCR/CD3 complex) on T-cells (human) (UniProt P07766)
Experiment: FACS staining of CD3+ Jurkat cells

| Substance | percent of Jurkat cells with positive staining [%] |
| --- | --- |
| monoclonal OKT3 antibody | > 90 |

Molecular target: human CD3 (TCR/CD3 complex) on T-cells (human) (UniProt P07766)
Experiment: FACS staining of CD3+ Jurkat cells with polymer fractions

| Substance | percent of Jurkat cells with positive staining [%] |
| --- | --- |
| scOKT3-γ?IgM monomers | 80 |
| scOKT3-γ?IgM pentamers | > 90 |
